The results in this text go back to US20240025984A1 (FLUX THERAPEUTICS, published 2024).

T1: SYNGAP1-nanoluc-alfa-tag-fusion
T1 chain: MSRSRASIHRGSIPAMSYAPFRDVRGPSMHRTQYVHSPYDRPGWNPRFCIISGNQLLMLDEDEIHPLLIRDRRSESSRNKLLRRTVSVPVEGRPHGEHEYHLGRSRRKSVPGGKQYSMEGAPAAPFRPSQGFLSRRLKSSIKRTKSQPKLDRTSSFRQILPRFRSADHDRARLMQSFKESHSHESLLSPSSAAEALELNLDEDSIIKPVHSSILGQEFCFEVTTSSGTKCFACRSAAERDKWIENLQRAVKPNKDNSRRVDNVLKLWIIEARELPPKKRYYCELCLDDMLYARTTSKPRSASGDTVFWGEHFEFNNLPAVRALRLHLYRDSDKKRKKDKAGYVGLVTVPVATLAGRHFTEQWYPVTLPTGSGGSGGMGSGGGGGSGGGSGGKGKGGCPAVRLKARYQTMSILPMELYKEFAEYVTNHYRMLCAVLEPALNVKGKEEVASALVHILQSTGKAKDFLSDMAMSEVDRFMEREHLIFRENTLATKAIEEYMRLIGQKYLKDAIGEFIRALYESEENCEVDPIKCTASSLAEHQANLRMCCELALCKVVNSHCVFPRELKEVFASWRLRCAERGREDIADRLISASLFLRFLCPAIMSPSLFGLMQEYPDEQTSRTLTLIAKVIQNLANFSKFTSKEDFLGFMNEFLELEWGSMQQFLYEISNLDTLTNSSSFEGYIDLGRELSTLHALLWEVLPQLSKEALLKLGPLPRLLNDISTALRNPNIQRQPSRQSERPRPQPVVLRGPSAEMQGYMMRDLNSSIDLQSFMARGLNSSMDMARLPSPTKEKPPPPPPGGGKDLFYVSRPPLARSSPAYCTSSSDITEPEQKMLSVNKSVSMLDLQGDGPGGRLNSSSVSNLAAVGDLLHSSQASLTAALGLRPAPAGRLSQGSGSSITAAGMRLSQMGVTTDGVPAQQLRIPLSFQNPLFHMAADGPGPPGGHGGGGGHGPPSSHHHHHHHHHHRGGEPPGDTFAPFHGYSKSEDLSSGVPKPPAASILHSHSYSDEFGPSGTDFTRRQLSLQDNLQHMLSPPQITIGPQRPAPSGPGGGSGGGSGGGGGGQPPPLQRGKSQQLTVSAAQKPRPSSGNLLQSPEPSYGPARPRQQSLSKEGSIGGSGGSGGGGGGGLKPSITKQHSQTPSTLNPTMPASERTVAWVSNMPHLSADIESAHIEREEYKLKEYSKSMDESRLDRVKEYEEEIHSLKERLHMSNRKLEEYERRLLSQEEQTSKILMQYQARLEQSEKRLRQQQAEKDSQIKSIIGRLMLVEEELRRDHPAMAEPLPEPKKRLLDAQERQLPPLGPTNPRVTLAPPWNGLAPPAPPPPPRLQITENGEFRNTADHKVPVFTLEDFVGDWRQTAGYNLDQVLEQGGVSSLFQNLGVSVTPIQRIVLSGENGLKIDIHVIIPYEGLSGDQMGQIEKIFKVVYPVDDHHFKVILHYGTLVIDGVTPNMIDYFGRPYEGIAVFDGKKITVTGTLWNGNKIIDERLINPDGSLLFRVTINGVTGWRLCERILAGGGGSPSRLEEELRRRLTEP

T2: His-SynGAP-EC[1186-1277] (Homo sapiens (Human), UniProt Q96PV0 956-1305)
T2 construct: Expressed in E. coli, purified on nickel resin, 15.75 kDa; also called SYNGAP1 fragment with N-terminal 6His tag
T2 sequence: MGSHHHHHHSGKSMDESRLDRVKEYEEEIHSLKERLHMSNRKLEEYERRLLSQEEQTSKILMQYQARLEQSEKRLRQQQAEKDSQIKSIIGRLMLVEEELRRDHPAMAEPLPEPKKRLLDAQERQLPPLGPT

B1: FireflyLuciferase-P2A-anti-syngap1_FLX00154-Cezanne (other)
chain: MEDAKNIKKGPAPFYPLEDGTAGEQLHKAMKRYALVPGTIAFTDAHIEVDITYAEYFEMSVRLAEAMKRYGLNTNHRIVVCSENSLQFFMPVLGALFIGVAVAPANDIYNERELLNSMGISQPTVVFVSKKGLQKILNVQKKLPIIQKIIIMDSKTDYQGFQSMYTFVTSHLPPGFNEYDFVPESFDRDKTIALIMNSSGSTGLPKGVALPHRTACVRFSHARDPIFGNQIIPDTAILSVVPFHHGFGMFTTLGYLICGFRVVLMYRFEEELFLRSLQDYKIQSALLVPTLFSFFAKSTLIDKYDLSNLHEIASGGAPLSKEVGEAVAKRFHLPGIRQGYGLTETTSAILITPEGDDKPGAVGKVVPFFEAKVVDLDTGKTLGVNQRGELCVRGPMIMSGYVNNPEATNALIDKDGWLHSGDIAYWDEDEHFFIVDRLKSLIKYKGYQVAPAELESILLQHPNIFDAGVAGLPDDDAGELPAAVVVLEHGKTMTEKEIVDYVASQVTTAKKLRGGVVFVDEVPKGLTGKLDARKIREILIKAKKGGKIAVTRLKGSGATNFSLLKQAGDVEENPGPRSGTGSSGQVQLVESGGGLVQPGGSLRLSCAASGFIFSSYQMAWVRQAPGKGLEWVADINTGGWNTYYADSVKGRFTISRDNAKNTLYLEMNSLKPEDTAVYYCAADRWMVAKIVGGDLDFDSWGQGTQVTVSSGGGGSGGGGSGGGGSGGGGSQVQLVESGGGLVQPGGSLRLSCAASGFIFSSYQMAWVRQAPGKGLEWVADINTGGWNTYYADSVKGRFTISRDNAKNTLYLEMNSLKPEDTAVYYCAADRWMVAKIVGGDLDFDSWGQGTQVTVSSGAPGSGPPSFSEGSGGSRTPEKGFSDREPTRPPRPILQRQDDIVQEKRLSRGISHASSSIVSLARSHVSSNGGGGGSNEHPLEMPICAFQLPDLTVYNEDFRSFIERDLIEQSMLVALEQAGRLNWWVSVDPTSQRLLPLATTGDGNCLLHAASLGMWGFHDRDLMLRKALYALMEKGVEKEALKRRWRWQQTQQNKESGLVYTEDEWQKEWNELIKLASSEPRMHLGTNGANCGGVESSEEPVYESLEEFHVFVLAHVLRRPIVVVADTMLRDSGGEAFAPIPFGGIYLPLEVPASQCHRSPLVLAYDQAHFSALVSMEQKENTKEQAVIPLTDSEYKLLPLHFAVDPGKGWEWGKDDSDNVRLASVILSLEVKLHLLHSYMNVKWIPLSSDAQAPLAQ
B2: FireflyLuciferase-P2A-anti-syngap1_FLX00155-Cezanne (other)
chain: MEDAKNIKKGPAPFYPLEDGTAGEQLHKAMKRYALVPGTIAFTDAHIEVDITYAEYFEMSVRLAEAMKRYGLNTNHRIVVCSENSLQFFMPVLGALFIGVAVAPANDIYNERELLNSMGISQPTVVFVSKKGLQKILNVQKKLPIIQKIIIMDSKTDYQGFQSMYTFVTSHLPPGFNEYDFVPESFDRDKTIALIMNSSGSTGLPKGVALPHRTACVRFSHARDPIFGNQIIPDTAILSVVPFHHGFGMFTTLGYLICGFRVVLMYRFEEELFLRSLQDYKIQSALLVPTLFSFFAKSTLIDKYDLSNLHEIASGGAPLSKEVGEAVAKRFHLPGIRQGYGLTETTSAILITPEGDDKPGAVGKVVPFFEAKVVDLDTGKTLGVNQRGELCVRGPMIMSGYVNNPEATNALIDKDGWLHSGDIAYWDEDEHFFIVDRLKSLIKYKGYQVAPAELESILLQHPNIFDAGVAGLPDDDAGELPAAVVVLEHGKTMTEKEIVDYVASQVTTAKKLRGGVVFVDEVPKGLTGKLDARKIREILIKAKKGGKIAVTRLKGSGATNFSLLKQAGDVEENPGPRSGTGSSGQVQLVESGGGLVQPGGSLRLSCAASGFAFGSYDMSWVRQAPGQGPEWVSAITPGGGGTFYAYYSDSVKGRFAISRDNAKNTLTLQMNSLKPDDTAMYYCAKNFYGNGGRGHGTQVTVSSGGGGSGGGGSGGGGSGGGGSQVQLVESGGGLVQPGGSLRLSCAASGFAFGSYDMSWVRQAPGQGPEWVSAITPGGGGTFYAYYSDSVKGRFAISRDNAKNTLTLQMNSLKPDDTAMYYCAKNFYGNGGRGHGTQVTVSSGAPGSGPPSFSEGSGGSRTPEKGFSDREPTRPPRPILQRQDDIVQEKRLSRGISHASSSIVSLARSHVSSNGGGGGSNEHPLEMPICAFQLPDLTVYNEDFRSFIERDLIEQSMLVALEQAGRLNWWVSVDPTSQRLLPLATTGDGNCLLHAASLGMWGFHDRDLMLRKALYALMEKGVEKEALKRRWRWQQTQQNKESGLVYTEDEWQKEWNELIKLASSEPRMHLGTNGANCGGVESSEEPVYESLEEFHVFVLAHVLRRPIVVVADTMLRDSGGEAFAPIPFGGIYLPLEVPASQCHRSPLVLAYDQAHFSALVSMEQKENTKEQAVIPLTDSEYKLLPLHFAVDPGKGWEWGKDDSDNVRLASVILSLEVKLHLLHSYMNVKWIPLSSDAQAPLAQ
B3: FLX00152 (VHH)
VHH: QVQLVESGGGLVQPGGSLRLSCAASGFSFSNFPMMWVRQAPGKGREWVADINQDGRNTYYADSVKGRFTISRDNAKTTVYLQMNNLNPEDTAVYYCQAIRTTTHFDSWGQGTQVTVSS
notes: Camelid VHH from a phage library; also called anti-SynGAP VHH FLX00152; VHH
B4: FLX00154 (VHH)
VHH: QVQLVESGGGLVQPGGSLRLSCAASGFIFSSYQMAWVRQAPGKGLEWVADINTGGWNTYYADSVKGRFTISRDNAKNTLYLEMNSLKPEDTAVYYCAADRWMVAKIVGGDLDFDSWGQGTQVTVSS
notes: Camelid VHH from a phage library; also called anti-SynGAP VHH FLX00154; VHH
B5: FLX00156 (VHH)
VHH: QVQLVESGGGLVQPGGSLRLACAASGFTFGTHAMHWVRWAPGKGFEWVSTISSGGGGTRYADSVKGRFTISRDNAKNTVYLQMDNLKPEDTAVYYCNSPSNIANDNWGQGTQVTVSS
notes: Camelid VHH from a phage library; also called anti-SynGAP VHH FLX00156; VHH
B6: FLX00157 (VHH)
VHH: QVQLVESGGGLVQAGASLRLSCAASERTFGHYAMGWFRQAPGKEREFVATISWKGGTTGYAHSVKGRFTISRDSAKNMVYLQMNSLKPEDTAVYYCAARNTMSGSMSSSAYPYWGQGTQVTVSS
notes: Camelid VHH from a phage library; also called anti-SynGAP VHH FLX00157; VHH
B7: FLX00155 (VHH)
VHH: QVQLVESGGGLVQPGGSLRLSCAASGFAFGSYDMSWVRQAPGQGPEWVSAITPGGGGTFYAYYSDSVKGRFAISRDNAKNTLTLQMNSLKPDDTAMYYCAKNFYGNGGRGHGTQVTVSS
notes: Camelid VHH from a phage library; also called anti-SynGAP VHH FLX00155; VHH
B8: FLX00153 (VHH)
VHH: QLQLVESGGGLVQPGESLRLSCAASGFTFSNYRMYWVRMAPGKGLEWVSDIDRSGTYTYYADSVKGRFAISRDNAKNTVYLQMNSLKPEDTAVYYCAADRRLIVDLTPEVYDHWGQGTQVTVSS
notes: Camelid VHH from a phage library; also called anti-SynGAP VHH FLX00153; VHH

The target of one experiment is T1, SYNGAP1-nanoluc-alfa-tag-fusion. Briefly: cell-based or functional assay.
Regarding B1, the “increase in SYNGAP1 expression over the control” value is at least 2 fold. Same read-out and setting: the same measure for B2: at least 2 fold.

The target of another experiment is T2, His-SynGAP-EC[1186-1277]. Briefly: phage display panning, then polyclonal and monoclonal phage ELISA on plate-coated antigen (4 ug/ml). As for the experimental part: The concentration of the eluted phages was determined. First, the eluted phages were added to E. Coli TG1. TG1 was poured onto a plate and cultured upside down. The PFU was calculated based on the number of plaques (i.e. dead TG1) on the plate. The eluted phages were added to TG1 followed infection by helper phage and cultured. Phages were precipitated with PEG/NaCl and subsequently resuspended. The phages were screened using a polyclonal ELISA and a monoclonal ELISA. […] ([…]) or control buffer. The coated plate was washed, blocked, washed, and incubated with the amplified eluted phages. Subsequently the plate was washed and incubated with anti-phage-HRP antibody, washed, and incubated with TMB followed by HCL. The result readings were taken at 450 nm. The monoclonal phase ELISA was carried out according to the following. Single TG1 clones randomly selected from plates (described above) were cultured with helper phage. A total of 192 clones from round 3+96 clones from round 4+96 clones from round 5 were selected. The clones were centrifuged and the supernatant (i.e. the phages) were collected. […] The plate was washed, blocked, washed, incubated with the selected phages, washed, incubated with anti-phage-HRP antibody, washed, and incubated with TMB followed by HCL. The results were read of 450 nm.
Turning to B3, the binding result is reported as “binds”. Still for that read-out and setting: next, B4: “binds”; B5: “binds”.

As for B6, the binding result was “binds”. Regarding B7, the binding result is “binds”. Still for that read-out and setting: next, B8: “binds”.
